Experiment: label from the status in PepcDB records

| Sequence | protein production |
| --- | --- |
| DFNPEIFQLESYFKSKYHLKDIEIVSSRKDSDTSEIEKDLAHVAAAMIRKKIKENDKVGIAWGRTLSKVVEAMRPHPVSQVSFVPLAGGPSHINARYHVNTLVYEMSRRFQGSCTFINATLVQENANLAKGILTSKYFEGLMDNWEKLDVAIVGVGGKPKSNEQQWLDLLNQDDFQCLDEEAAVGEITCRFFNHSGDPVNQHLAKRTIGITLEQLQKVPNRIAVAHGNYKAAALLAVLKKGYINHLVTDFSTALNILRLDKDTFVDTIYQKS | failed |
| MQAEGKRKKGDLLIILVVLIIGVGAAVPWLWNQLNPGGGNGEHERIAVITRDGKEVARINLDKVTEPQHFHYEGGIALTIVAENGKIRFLESQCPDQICVKTGSLSKPGDFAACLPAGTIVTIEGDEYE | failed |
| MIKETVFKSFDTPAALEQQLANKIASQLQEAVDARGKASLVVSGGSTPLKLFELLSMKSIDWSDVYITLADERWVDVEDSASNERLVREHLLQNRAANAKFRGLKNMFSTAEAGADMTCESLSNFPRPFDVVVLGMGNDGHTCSWFPCSAELNDALTTQALCVATNPTTAPHGRITLSKNAILNSRQIYLHLVGEQKLSVYRQALENDDVNAMPIRAVLAQRKTPVDVFWSA | failed |
| MMVETATVVQYQNGKALVRCSVKTACGNCGAKADCGTQLLSSLVKERVPHFELSVNMPLVAGDMVKIGLPEQTLLWSIFWIYVVPLMVLIGSAVGFTQLFANELVVVFMMFICTSMTFFSIKKIIDKKQLSQLNPIFLGRVE | failed |
| MARDALTDALTVGELRRRVHALVLGKRQRVYSGAMFLVEVVHHPELSAMLGLEDNKLLLAMIAQRLQMQSDYFQVARHSSDSFMVWAPDLDPRSARDVAPEVLDALSQPYELRGQPLIVGFRLSGALYAQHGACFDELERSLHIAMLHLDESAGAAWNMFEPSMLEHQRHYQGLEHHHHHH | failed |
| MMMLQGSKSGSEMEVTWEDQQNINIFSRLNNRVHDLDDDIKSAKEKCENLEDAGNELILADEEMVRFQIGEVFAHVPRDDVETKIEEMKEATCKSLEKLEQEKESIVTQMAALKKVLYAKFKDSINLEED | failed |
| MMNTSDNHALGDFLRARRQRLDPATFGFPAGRRRTPGLRREEVAQLASISPTWYTWLEQGRGGAPSREVLERIARGLRLTTPEREHLFILAFGHPPQTRLTVTDDMTPRLQRVLDAFTIPAIIRTASW | failed |
| MKVEFLMTNHNHQHHHSHAHGHVHTDNKKVLMFSFIIISLFMLVEIIGGFLANSLALLSDGFHMLSDAISLGVALIAFIYAEKHATKSKTYGYKRFEILAALFNGVTLFIISIIIIIEAIRRFLEPPEVQSKEMFIISVIGLMVNIIVAILMFKGGDTSHNLNMRGAFLHVLGDLFGSVGAIVASLLIWGFNFTIADPIASILVSLIILKSAYGISKSSLNILMEGTPNDIDLNAVIKAISKDERIQNVHDCHVWTISNDMNALSCHAVVPEYLSVQTCETMLKSIESDLLQLNIQHMTIQLETPEHKHDESTLCSGIHEHSH | failed |
| GIHYTSEKDIRQIVRPTIADYWEGKIDEATTYEDLEKLKQELREYRVLDPACGSGNFLYVAYQELKRLERVLLNKIYERRKRFQGEVLQQEEIGIVTPLQFFGMDTNPFAVQLARVTMMIARKIAIDKFGLTEPALPLDSLDQNIVCQDALFNDWPKADAIIGNPPFLGGSRVRLELGDKYVERIFEKFSDVKDKVDFCVYWFRLAHENLNKTGRAGLVGTNSISQGFSRRASLEYIVNNGGIIHDAISTQVWSGQANVHVSLVNWQYLKPPEYVLDHEIVKNINSSLKSETDVSNAVKLK | failed |
| MSVIHPLQNLLTSRDGSLVFAIIKNCILSFKYQSPNHWEFAGKWSDDFDKIQESRNTTAKEQQGQSSENENENKKLKSNKGDSIKRTAAKVPSPGLGAPPIYSYIRNLRLTSDESRLIACADSDKSLLVFDVDKTSKNVLKLRKRFCFSKRPNAISIAEDDTTVIIADKFGDVYSIDINSIPEEKFTQEPILGHVSMLTDVHLIKDSDGHQFIITSDRDEHIKISHYPQCFIVDKWLFGHKHFVSSICCGKDYLLLSAGGDDKIFAWDWKTGKNLSTFDYNSLIKPYLNDQHLAPPRFQNENNDIIEFAVSKIIKSKNLPFVAFFVEATKCIIILEMSEKQKGDLALKQIITFPYNVISLSAHNDEFQVTLDNKESSGVQKNFAKFIEYNLNENSFVVNNEKSNEFDSAIIQSVQGDSNLVTKKEEIYPLYNVSSLRKHGEHYS | failed |
| MTYMNNEVTTKASKQRLEVHKPRPIFFETLTITQIQIFMQSYSRLMQFKVKDLMIDKRRLVEVPDNATLGDALNTMTILGIKPVANRVRAVPVAAKPGQWLGAGGSMIVELDKQSGSARKQYIGMVTMLDVVAHIAGDDGESGLDKKMAAPVSSIIGHCPEGLSLWSLNPNTSIMDCMEMLSKGIHRVLVPLDSNTENITGPELVESASAYAMLSQMDLISFFFDQSSQLHGILSHTVTDLSAIHNTVLALTSQARVKDAIQCMSIAMLNAVPIVEASGEGEDHKQLVDGKNRRVVGTFSASDLKGCHLATLRSWLPLNALEFVEKIPRTLLFTAATSTPGRELVTCHVTSTLAQVIHMVTTKRVHRVWVVDQNGGLQGLVSLTDIIAVVRSALLSGAPDLF | failed |
| MIKRILTVLLLFPTLVCAQINTERVMTIARNALYFEDYVLSIQYFNQVINAKPYLYEPYFFRALAKVNLEDYQGAEADCDEAIKRNPFVVGAYQVRGLARIRQSKFDGAIEDYQKALHYDPENITLWHNLTLSHIQKKDYDAAKEDLESLLKVSPRYTRAYLMRGEVSLQQKDTVAALKDFNTALELDKYDPDAWSARAIVRLQQSNYAEAESDLDRAIHLSAKNAGNYINRALARFHQNNLRGAMSDYDLALDIDPNNFIGHYNRGLLRARVGDDNRAIEDFDFVIQMEPDNMMAIFNRALLRAQTGDYRGAIKDYTTVINQYPNFLAGYYHRAEARKKIGDKKGAEQDDFKLLKAQLDKQNGGTNKDVAQNQNKDKENQSGENGDESEEGKTRKKSDKNMNNYRKIVIADDSEADQRYTSDYRGRVQDKNVNIKLEPMFALTYYEKSSEVKRSVNFHKFIEDLNLSNVLPKRIRITNMEAPLTEEQVKFHFALIDAHTSAIVDDDKSAPKRFARAIDFYLVQDFSSAVADLTQAILLDGDFFPAYFMRALIRCKQLEYQKAEQAAEADMPSGAAVKEVSAVDYEVVRKDLDKVITLAPDFVYAYYNRANVAAMLKDYRAAIVDYDKAIQLSPDFADAYFNRGLTHIFLGNNKAGISDLSKAGELGVVSAYNVIKRFTDQTE | failed |
| MIHGFLCSTKSALPHPLDDPAFVTASACRLASRPFRFMPQSSRRQNRSGTLVFANWNYVLLLIGVALIVVGFTAMYLEGQYLGFISLYVSPVLIIGGYAEIIYALLWAPDEQSAAEEQ | failed |
| MPDGDFITLDRVEKVFDVRRKTGFLRSERRRVRAVDSLSFTVARGEMVGYIGPNGAGKSTTIKMLTGILTPSGGRLRVAGIDPSRERTRLAARIGVVFGQRTTLWWDLPLIDSYRLMHRMYRIPDGRYRENLDRCVELLELGDLLDVPVRQLSLGQRMRGDIAAALLHDPEVLYLDEPTIGLDVISKARVREFLRELNAERGTTVLLTTHDLQDIEQLCGRVMVIDHGRLMYDGPLAGLHEVGDSERTLVVDLARELPPIEAAPARVVKVEGPRQWLAFPASESAAPLVARIAAAYPLVDLSVREPDIEAVIAKMLQSMGDTPQPPPEQAEHVVSLEHHHHHH | not failed |
| MTASIFSGVIPALMTPCRQDRTPDFDALVRKGKELIADGMSAVVYCGSMGDWPLLTDEQRMEGVERLVKAGIPVIVGTGAVNTASAVAHAVHAQKVGAKGLMVIPRVLSRGSVIAAQKAHFKAILSAAPEIPAVIYNSPYYGFATRADLFFALRAEHKNLVGFKEFGGPADMRYAAENITSRDDEVTLMIGVDTAVVHGFVNCGATGAITGIGNVLPKEVIHLCKLSQAAAKGDADARARALELEQALAVLSSFDEGPDLVLYFKYMMVLKGDKEYTLHFNETDALTDSQRGYVEAQFKLFNSWYADWSKLPGAVQTCKAA | not failed |
| MKGNCLLKEYQVTMSDDAKADLLSIYHYVRDELCAPQAADDLLERLSQGMLSLSIFPERCAIIEDLIGKGYTFRQLIVKKYRIVYHVLEDEVIIVAVVYGSRHMNNWLEHHHHHH | failed |
| MRAMRLVEIGKPLKLEDIPIPKPKGSQVLIKIEAAGVCHSDVHMRQGRFGNLRIVEDLGVKLPVTLGHEIAGRIEEVGDEVVGYSKGDLVAVNPWEGEGNCYYCRIGEEHLCDSPRWLGINYDGAYAEYVLVPHYKYLYKLRRLSAVEAAPLTCSGVTTYRAVRKASLDPSKTLVVIGAGGGLGTMAIQIAKAVSGATIIGVDVREEALEAAKRAGADYVINASSQDPVSEIRRITQGKGADAVIDLNNSEKTLSIYPYVLAKQGKYVMVGLFGADLKYHAPLITLNEVQFIGSLVGNQSDFLGIMSLAEAGKVKPMVTKTMKLEEANEAIDNLENFKAVGRQVLVP | not failed |
| MMRKHFLSRSSLRAIVLCVSLGTLSAQAVSVPNAIAQSSLPASPLDSFYSSIPSGENTVAGTVLSEQVIPTGLLDATIKVKRIAYSSTHPSGRMVPTIATILTPTAPWTGSGPRPAALLAPGTQGAGDQCAPSKLITVGAEYELFPAIMLLRRGWTVAITDYQGLGTIGAHTYMNRKAQGAALLDLGRAVVNVKYPEVRKDAPLILWGYSQGGGASAAAAEMHASYAPDVNIRGGFAGGVPAELLATARSLEGSPLLGALGYAISGMYETHPELRLEVDDLLNDRGKQWIIDSGTHCLLDSFRTMPIPDSRVMTRSGQRLTDLLGSKVFHSYFEEQRLGKVAPDVPMFVSQGANDDIIPAQQARDMVSNWRDLGADVTYFEDPAPLLVRMEGHVRPLVTSFDPALQWAEKLLGSEVINPPSAS | failed |
| MEQDHVKVKKRVAFVLIDGLGDVTIPKLGYKTPLQAANIPNLDAIASAGINGLMDPVEVGLGCGSDTAHLSLMGYDPRVYYRGRGAFESMGAGLAMSPGDIAFKSNFATLDEKSGVVVSRRADRHFEEEGPILCAALDGLKLQSFPEYEVRVRYATEHRCGVVVKGPRLSGNISGTDPLKDNRLLLEAKPLDESEEATHTAKVVNELSREISRILVSHPVNAERAAQGKNIANLVLLRGCGIRIEVPPFHEKHGLWPCMVAPTKIIAGLGMSLGIDILEAPGATGDYRTLLTSKATAIANALSAPLNPCPNVFVPGEDGHKPGRSDGYDFGFLHIKAIDDAGHDKATMFKVRGLEAVDKAIRQLAKLLWQAESSTHYQYFLCVTGDHSTPVEYGDHSFEPVPFTMCRLRDFVSAVGGESAVLETSLDPFPLPTVVESGEDVTKQEEESGRREAPLAIGGDLVAELNEVAAARGCLGRFHGGEMMGVITNFLNLEV | failed |
| MTPPASSSPCSSSDKRNRAVPSAKALMVWRAGPDGRPLDPSQFPQDPPARRDGDGGGAEAWLNLVHPEEREAVLLLWRRALREGEEFEARYRLHRGLSGYRWALGQGRPLRGDDGEVREWIGTVVDIHDHMEAERTIALSEERLRLALDSADLGVWECTIATNQWWFSEAALRILGCPPDAETSIETVMGAIHSDDLDGLRARWHAARTGRARDRMEGEFRIQRGGGRLGWIACSARLVADDGKAVTRMLGTLRDITKTRLQREKLYHLAHFDPLTGLPNRHEMITRTQATLASGGAAGGAGAILLLDLDGFKEANDTLGQATGDALLKRIAHRLVSSLPADSLIGRVGGDEFLVVVPGVAEQWTATRIADGLYDVLTVPFVIGDRRIPLSGRIGIALAPRDGTSAQDLMTHAELALQETKTISGCVTRFFSPRLHDEARERQDMGLELRRATDNGEFELFYQPQIRLSDRAVVGAEALLRWRHPTRGVMPPAAFLHVLKRGPLAGEVGEWVVAKACADAAGLLNAGSRIRMAVNLFSAQFKAGTVDATVRRSLLESGLPAELLELEITEKVTLDRDEGILTCLKGLRDLGCGVAFDDYGTGYASLSMLKRYPLTRLKIDRAFVQHLAESPKDGAIVRAVLSLGNTFGLSVTAEGIEEEEQEKLLLGQGCDEGQGYFFGRPMPLADFIQFLARVKKNPGEFPTPA | failed |

From a protein production outcome set (Wang et al. 2014)
